Results as given in patent CN116355099A (BEIJING KENUO XINCHENG TECH CO LTD, dated 2023).

T1: 人OX40胞外区重组蛋白(OX40-His) (human, UniProt P43489 29-214)
T1 construct: extracellular domain; also called 人OX40重组蛋白(10481-H08H，北京义翘神州); 人OX40胞外区融合蛋白; not shown: His tag
T1 sequence (looked up): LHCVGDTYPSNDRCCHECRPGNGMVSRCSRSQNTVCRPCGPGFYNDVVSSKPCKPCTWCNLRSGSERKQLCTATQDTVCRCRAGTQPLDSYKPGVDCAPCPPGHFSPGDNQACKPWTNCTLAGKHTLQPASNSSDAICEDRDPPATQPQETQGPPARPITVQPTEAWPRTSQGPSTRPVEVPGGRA

T2: human OX40 on HT1080-hOX40 cells (human, UniProt P43489 29-277)
T2 sequence (looked up): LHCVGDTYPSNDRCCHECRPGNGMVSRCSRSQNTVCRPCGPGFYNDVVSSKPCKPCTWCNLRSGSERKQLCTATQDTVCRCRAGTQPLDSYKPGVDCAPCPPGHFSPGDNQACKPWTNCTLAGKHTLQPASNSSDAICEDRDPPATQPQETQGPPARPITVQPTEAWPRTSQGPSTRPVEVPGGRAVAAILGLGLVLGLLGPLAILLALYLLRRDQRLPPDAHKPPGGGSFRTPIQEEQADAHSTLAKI

B1: hz27G12-hzF2 (bispecific antibody, human IgG1, kappa)
heavy: not shown
light: EIVMTQSPATLSVSPGERATLSCKASQSVDYEGDSYMNWYQQKPGQAPKLLIYAASNLESGIPARFSGSGSGTDFTLTISSLEPEDFATYYCQQSNEDPYTFGGGTKVEIKRTVAAPSVFIFPPSDEQLKSGTASVVCLLNNFYPREAKVQWKVDNALQSGNSQESVTEQDSKDSTYSLSSTLTLSKADYEKHKVYACEVTHQGLSSPVTKSFNRGEC
notes: Symmetric four-chain molecule (two of peptide chain 1, two of peptide chain 2); expressed in HEK293, purified on Protein A; also called 抗PD-L1/OX40双特异性抗体 hz27G12-hzF2; OX40/PD-L1双特异性抗体
B2: 抗OX40人源化抗体hz27G12 (antibody, V domains shown)
VH: EVQLVQSGAEVKKPGASVKVSCKASGYTFTEYIIHWVRQAPGQGLEWIGWFYPESGSIKYNEKFKDRVTITRDTSTSTVYMELSSLRSEDTAVYYCARHEDPITFAYWGQGTLVTVSS
VL: EIVMTQSPATLSVSPGERATLSCKASQSVDYEGDSYMNWYQQKPGQAPKLLIYAASNLESGIPARFSGSGSGTDFTLTISSLEPEDFATYYCQQSNEDPYTFGGGTKVEIK
notes: Parental humanised anti-OX40 monoclonal antibody (from CN202010063141.3); also called 单抗hz27G12
B3: 抗OX40人源化抗体hz25A7 (antibody, V domains shown)
VH: EVQLVESGGGLVQPGRSLRLSCAASGFTFSSHDMSWVRQAPGKGLELVAAINSEGGRIYYPDTMERRFTISRDNSKNTLYLQMNSLRAEDTAVYYCARHYDNYAWFAYWGQGTLVTVSS
VL: DIQMTQSPSSLSASVGDRVTITCRASKSVSTSGSSYIHWYQQKPGKAPKLLIYLASNLESGVPSRFSGSGSGTDFTLTISSLQPEDFATYYCQHSRELPLTFGGGTKVEIK
notes: Parental humanised anti-OX40 monoclonal antibody (from CN202010063141.3); also called 单抗hz25A7
B4: hz25A7-hzF2 (bispecific antibody, human IgG1, kappa)
heavy: not shown
light: DIQMTQSPSSLSASVGDRVTITCRASKSVSTSGSSYIHWYQQKPGKAPKLLIYLASNLESGVPSRFSGSGSGTDFTLTISSLQPEDFATYYCQHSRELPLTFGGGTKVEIKRTVAAPSVFIFPPSDEQLKSGTASVVCLLNNFYPREAKVQWKVDNALQSGNSQESVTEQDSKDSTYSLSSTLTLSKADYEKHKVYACEVTHQGLSSPVTKSFNRGEC
notes: Symmetric four-chain molecule (two of peptide chain 1, two of peptide chain 2); expressed in HEK293, purified on Protein A; also called 抗PD-L1/OX40双特异性抗体 hz25A7-hzF2; OX40/PD-L1双特异性抗体

How the values were obtained:
人PD-L1胞外区重组蛋白(PD-L1-His) [1] = target: T3, 人PD-L1胞外区重组蛋白(PD-L1-His) (human, UniProt Q9NZQ7 19-238); assay: BLI (Octet QKe), antibody captured on AHC probe, antigen in solution, 1:1 Langmuir fit
T3 construct: extracellular domain; also called 人PD-L1重组蛋白(10084-H08H，北京义翘神州); 人PD-L1胞外区融合蛋白; not shown: His tag

人OX40胞外区重组蛋白(OX40-His) [2] = target: T1, 人OX40胞外区重组蛋白(OX40-His); assay: as above
人OX40胞外区重组蛋白(OX40-His) [3] = target: T1, 人OX40胞外区重组蛋白(OX40-His); assay: ELISA, OX40-His coated at 1 ug/mL, anti-human Fc-HRP detection
人PD-L1胞外区重组蛋白(PD-L1-His) [4] = target: T3, 人PD-L1胞外区重组蛋白(PD-L1-His); assay: ELISA, PD-L1-His coated at 1 ug/mL, anti-human Fc-HRP detection
[5] = target: T2, human OX40 on HT1080-hOX40 cells; assay: cell-based or functional assay
[6] = target: PD-L1 on CHO-PD-L1-CD3L cells (UniProt Q9NZQ7 19-290, limits assumed); assay: cell-based or functional assay
PD-L1-mFc = target: T4, PD-L1-mFc (UniProt Q9NZQ7 19-238, limits assumed); assay: competition ELISA: PD-1-hFc coated, PD-L1-mFc 1 ug/ml in solution, blocking of PD-L1 binding to PD-1
T4 construct: also called 重组PD-L1; not shown: mouse Fc (mFc)

人OX40胞外区重组蛋白(OX40-His) [7] = target: T1, 人OX40胞外区重组蛋白(OX40-His); assay: ELISA, OX40-His coated

T3 sequence (Q9NZQ7 19-238): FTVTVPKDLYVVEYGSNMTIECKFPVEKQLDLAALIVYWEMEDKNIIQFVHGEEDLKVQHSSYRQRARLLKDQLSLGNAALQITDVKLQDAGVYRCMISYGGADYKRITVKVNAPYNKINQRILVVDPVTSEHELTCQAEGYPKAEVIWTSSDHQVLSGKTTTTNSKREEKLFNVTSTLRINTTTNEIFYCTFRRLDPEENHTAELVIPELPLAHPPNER
Chain of PD-L1 on CHO-PD-L1-CD3L cells (Q9NZQ7 19-290 limits assumed): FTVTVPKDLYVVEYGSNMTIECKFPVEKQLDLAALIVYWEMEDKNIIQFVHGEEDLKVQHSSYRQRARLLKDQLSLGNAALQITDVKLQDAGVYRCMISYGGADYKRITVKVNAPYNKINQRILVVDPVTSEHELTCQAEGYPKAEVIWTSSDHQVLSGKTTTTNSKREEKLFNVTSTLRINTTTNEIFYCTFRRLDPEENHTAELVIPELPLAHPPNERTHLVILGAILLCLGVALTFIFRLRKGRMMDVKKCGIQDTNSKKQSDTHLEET
T4 sequence (Q9NZQ7 19-238 limits assumed): as the sequence (Q9NZQ7 19-238) above

Binder | Kd (人PD-L1胞外区重组蛋白(PD-L1-His) [1]) | Kd (人OX40胞外区重组蛋白(OX40-His) [2]) | EC50 (人OX40胞外区重组蛋白(OX40-His) [3]) | EC50 (人PD-L1胞外区重组蛋白(PD-L1-His) [4]) | 刺激HT1080-huOX40细胞表达IL8活性, EC50 [5] | 对PD-1/PD-L1信号通路的阻断活性 (Jurkat-PD1-NFAT / CHO-PD-L1-CD3L luciferase reporter), IC50 [6] | IC50 (PD-L1-mFc) | binding result (人OX40胞外区重组蛋白(OX40-His) [7])
B1 | 1.3 nM | 8 nM | 0.0781 nM | 0.651 nM | 2.28 µg/mL | 3.38 nM | 7.12 nM | –
B2 | – | – | – | – | – | – | – | binds
B3 | – | – | – | – | – | – | – | binds
B4 | 1 nM | 5 nM | 0.0877 nM | 0.563 nM | 0.247 µg/mL | 4.75 nM | 6.84 nM | –
